Results: the supplement of paper PMC6755084

B1: F1*; the commonest letter at each place (parent)
chain: GAGACCGCAACTGAAAAGTTGTTATCACTTGTCGTAAGACACTTTGGATGGGTTGAAGTTCTGCACGTAGAAGCAAAAGGC

Variants of: B1
Experiment: fraction ligated after 30 min (ligated reads / total reads); higher = more ligase activity
Details: with F1*sub RNA substrate (template-directed ligation), 42 °C
Procedure, shortened: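 Ribozyme variants were transcribed with T7 from PCR-amplified oligo-pool templates and gel-purified. Ligated and unligated bands, separated on gel, were reverse transcribed with barcoded primers and sequenced on a MiSeq, with core bases filtered at quality ≥20. Fraction ligated per variant was computed as ligated reads divided by total reads.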

Row | Variant | fraction ligated
1 | T30A T32A | 0.843
2 | T30A T32G | 0.842
3 | T30A T32C | 0.768
4 | T29G T30A | 0.823
5 | T29G T30C | 0.828
6 | T29G T30G | 0.844
7 | T29C G47A | 0.793
8 | T29C G47T | 0.508
9 | T29C G47C | 0.264
10 | T29G A57C | 0.765
11 | T29G A57G | 0.776
12 | T29G A57T | 0.811
13 | T30A G47C | 0.128
14 | T30A G47T | 0.373
15 | T30A G47A | 0.793
16 | T29C T49A | 0.62
17 | T29C T49C | 0.104
18 | T29C T49G | 0.66
19 | T29G T44G | 0.791
20 | T29G T44C | 0.795
21 | T29G T44A | 0.848
22 | T29G G38A | 0.844
23 | T29G G38C | 0.844
24 | T29G G38T | 0.855

Row | Variant | fraction ligated
25 | T29C T35C | 0.801
26 | T29C T35A | 0.843
27 | T29C T35G | 0.831
28 | T29G A39T | 0.822
29 | T29G A39G | 0.819
30 | T29G A39C | 0.822
31 | T30A A39G | 0.805
32 | T30A A39T | 0.81
33 | T30A A39C | 0.777
34 | T30A A41G | 0.798
35 | T30A A41T | 0.859
36 | T30A A41C | 0.797
37 | T29G G47T | 0.738
38 | T29G G47A | 0.816
39 | T29G G47C | 0.696
40 | T29C G55A | 0.815
41 | T29C G55T | 0.765
42 | T29C G55C | 0.638
43 | T29G G31A | 0.836
44 | T29G G31T | 0.835
45 | T29G G31C | 0.804
46 | T30A C40G | 0.803
47 | T30A C40T | 0.825
48 | T30A C40A | 0.845

Row | Variant | fraction ligated
49 | T29G G34A | 0.824
50 | T29G G34C | 0.808
51 | T29G G34T | 0.83
52 | T29C G50C | 0.112
53 | T29C G50A | 0.116
54 | T29C G50T | 0.41
55 | T29G T43G | 0.777
56 | T29G T43C | 0.817
57 | T29G T43A | 0.826
58 | T29G G46T | 0.805
59 | T29G G46C | 0.786
60 | T29G G46A | 0.832
61 | T30A C33T | 0.849
62 | T30A C33G | 0.84
63 | T30A C33A | 0.847
64 | T29C T44A | 0.802
65 | T29C T44G | 0.848
66 | T29C T44C | 0.822
67 | T30A A56T | 0.81
68 | T30A A56G | 0.797
69 | T30A A56C | 0.773
70 | T30A G38T | 0.832
71 | T30A G38A | 0.813
72 | T30A G38C | 0.795

Row | Variant | fraction ligated
73 | T29C T43C | 0.802
74 | T29C T43A | 0.839
75 | T29C T43G | 0.815
76 | T29C T45A | 0.554
77 | T29C T45G | 0.239
78 | T29C T45C | 0.471
79 | T29C G38C | 0.828
80 | T29C G38T | 0.816
81 | T29C G38A | 0.803
82 | T29G | 0.829
83 | T30A C42T | 0.852
84 | T30A C42A | 0.815
85 | T30A C42G | 0.847
86 | T29C T30A | 0.796
87 | T29C T30C | 0.782
88 | T29C T30G | 0.805
89 | T30A G50T | 0.57
90 | T30A G50C | 0.111
91 | T30A G50A | 0.22
92 | T29G C40G | 0.83
93 | T29G C40A | 0.84
94 | T29G C40T | 0.809
95 | T29G T45C | 0.677
96 | T29G T45A | 0.673

Row | Variant | fraction ligated
97 | T29G T45G | 0.267
98 | T29G T35C | 0.803
99 | T29G T35A | 0.83
100 | T29G T35G | 0.813
101 | T30A A48G | 0.806
102 | T30A A48T | 0.671
103 | T30A A48C | 0.741
104 | T29C G46A | 0.804
105 | T29C G46T | 0.779
106 | T29C G46C | 0.775
107 | T30A A36C | 0.854
108 | T30A A36T | 0.823
109 | T30A A36G | 0.832
110 | T29G C42G | 0.839
111 | T29G C42T | 0.83
112 | T29G C42A | 0.813
113 | T30A G46A | 0.809
114 | T30A G46T | 0.805
115 | T30A G46C | 0.795
116 | T30A G34A | 0.833
117 | T30A G34T | 0.802
118 | T30A G34C | 0.781
119 | T29G A41G | 0.815
120 | T29G A41C | 0.83

Row | Variant | fraction ligated
121 | T29G A41T | 0.833
122 | T30A G31T | 0.831
123 | T30A G31C | 0.784
124 | T30A G31A | 0.842
125 | T30A A57T | 0.8
126 | T30A A57G | 0.837
127 | T30A A57C | 0.778
128 | T29C G34T | 0.823
129 | T29G A36G | 0.823
130 | T29G A36T | 0.826
131 | T29G A36C | 0.825
132 | T29C T32C | 0.764
133 | T29C T32A | 0.804
134 | T29C T32G | 0.794
135 | T29G T49C | 0.733
136 | T29G T49A | 0.753
137 | T29G T49G | 0.77
138 | T29G C33G | 0.865
139 | T29G C33T | 0.808
140 | T29G C33A | 0.85
141 | T29G G50C | 0.243
142 | T29G G50T | 0.683
143 | T29G G50A | 0.345
144 | T29G A48G | 0.805

Row | Variant | fraction ligated
145 | T29G A48C | 0.756
146 | T29G A48T | 0.773
147 | T30A T35A | 0.839
148 | T30A T35C | 0.816
149 | T29G T32C | 0.809
150 | T29G T32G | 0.832
151 | T29G T32A | 0.821
152 | T29G A56G | 0.749
153 | T29G A56C | 0.787
154 | T29G A56T | 0.793
155 | T30A G55T | 0.818
156 | T30A G55A | 0.816
157 | T30A G55C | 0.741
158 | T29G A37G | 0.832
159 | T29G A37T | 0.828
160 | T29G A37C | 0.814
161 | T30A A37C | 0.831
162 | T30A A37G | 0.87
163 | T30A A37T | 0.832
164 | T30A | 0.855
165 | T29G G55A | 0.79
166 | T29G G55C | 0.584
167 | T29G G55T | 0.792
